Measurements: patent US10413588B2, “Probiotic function of human intelectin” (Wisconsin Alumni Research Foundation, priority 2015, dated 2019)

How the values were obtained:
[1] = Microbial Glycan Microarray (MGMv2); assay type: binding, Salmonella enterica; conditions: Strep-hIntL-1 50 μg/mL; terminal α-Galf residue
Method: Strep-hIntL-1 was used to interrogate the Microbial Glycan Microarray version 2 (MGMv2). Construction of the MGMv2 is previously described. Briefly, bacterial polysaccharide samples were dissolved and diluted to 0.5 mg/mL in printing buffer (150 mM sodium phosphate buffer (8.4)+0.005% Tween-20). Samples were immobilized on NETS-activated glass slides (SlideH, Schott/Nexterion) using a MicroGrid II (Digilab) contact microarray printer equipped with SMP-4B printing pins (Telechem). Six replicates of each bacterial glycan sample were printed. Covalent coupling of glycans to the surface was facilitated by incubation for 1 hour postprint at 100% relative humidity. The remaining reactive NHS-moieties were quenched using a blocking solution (50 mM ethanolamine in 50 mM borate buffer (9.2)). Blocked slides were stored at −20° C. until assays were performed. […] The Strep-Tag® II on bound hIntL-1 was detected using StrepMAB-Classic Chromeo647 (10 μg/mL, IBA GmbH Lifesciences) diluted in binding buffer applied directly to the array surface and allowed to incubate for 1 hour. […] Signal data was calculated as the average of 4 values after removing the high and low values of the 6 replicates. Data were plotted using Excel (Microsoft) as average Relative Fluorescence Units (RFU) versus print identification number. […]

[2] = tested on: adult male fecal microbiome; experiment: Flow cytometry binding to adult fecal microbiome; design: species or system human; conditions: adult fecal sample, 15 μg/mL Strep-tagged-hIntL-1, 10 mM CaCl2
Method: Human fecal samples provide a non-invasive proxy of the intestinal microbiome of a patient. The inventors have isolated the intestinal microbiome from human fecal samples and analyzed it for hIntL-1 binding. The isolated microbiome was fixed using an aqueous solution of 1% formaldehyde. Cells were stained as described elsewhere, using either a solution including calcium ions (100 mM) or one containing the calcium ion chelator EDTA. Microbes were exposed to 20 mM HEPES (pH 7.2), 150 mM NaCl, 10 mM CaCl2, 15 μg/mL Strep-tagged-hIntL-1, 0.1% bovine serum albumin (BSA), 0.05% tween-20, 2 μg/mL StrepMAB Classic conjugated to Oyster 645 (IBA Lifesciences, cat. no.: 2-1555-050). To test for a role for calcium ions, cells were exposed to a solution of 20 mM HEPES (pH 7.2), 150 mM NaCl, 1 mM EDTA, 15 μg/mL Strep-tagged-hIntL-1, 0.1% bovine serum albumin (BSA), 0.05% tween-20, 2 μg/mL StrepMAB Classic Conjugated to Oyster 645 (IBA Lifesciences, cat. no.: 2-1555-050). Cells are analyzed consecutively on a BD LSRII flow cytometer using identical instrument setting. Unstained cells, cells stained in the presence of calcium ions (10 mM), and cells stained in the presence of EDTA were directly compared. […]

B1: hIntL-1: human lectin intelectin-1, accession no. Q8WWA0; recombinant disulfide-linked trimer from HEK 293T cells, used also N-terminally Strep-tagged (Strep-hIntL-1) (protein, listed as Homo sapiens)
chain: MNQLSFLLFLIATTRGWSTDEANTYFKEWTCSSSPSLPRSCKEIKDECPSAFDGLYFLRTENGVIYQTFCDMTSGGGGWTLVASVHENDMRGKCTVGDRWSSQQGSKAVYPEGDGNWANYNTFGSAEAATSDDYKNPGYYDIQAKDLGIWHVPNKSPMQHWRNSSLLRYRTDTGFLQTLGHNLFGIYQKYPVKYGEGKCWTDNGPVIPVVYDFGDAQKTASYYSPYGQREFTAGFVQFRVFNNERAANALCAGMRVTGCNTEHHCIGGGGYFPEASPQQCGDFSGFDWSGYGTHVGYSSSREITEAAVLLFYR
signal on microbial glycan array [1]: 66 RFU
fraction of bacteria of the human microbiome bound by hIntL-1 [2]: approximately 25%
